Test results reported in paper PMC4186855, “A Soybean C2H2-Type Zinc Finger Gene GmZF1 Enhanced Cold Tolerance in Transgenic Arabidopsis”.

Biological target: T1, GmZF1 (GST fusion) (Glycine max (soybean), UniProt Q4FH86 1-172)
T1 sequence: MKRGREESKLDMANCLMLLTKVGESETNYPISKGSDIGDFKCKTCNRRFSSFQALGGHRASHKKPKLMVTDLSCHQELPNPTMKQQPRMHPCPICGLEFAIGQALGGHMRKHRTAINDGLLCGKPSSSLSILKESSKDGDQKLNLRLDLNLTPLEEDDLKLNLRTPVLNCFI
Assay: EMSA; 20 µL binding buffer with 32P-labelled probe, glycerine and 0.2 µg purified protein; 6% polyacrylamide gel in TBE (printed as 0.53, probably 0.5x); salt, pH and temperature not stated
Details: protein: recombinant; tags: GST (pGEX-4T-1); label: 32P

B1: E1 (wild-type EP1S, 4 copies) (dsDNA)
DNA 1: TTGACAGTGTCACTTGACAGTGTCACTTGACAGTGTCACTTGACAGTGTCAC
DNA 2: GTGACACTGTCAAGTGACACTGTCAAGTGACACTGTCAAGTGACACTGTCAA
- binding result: binds

B2: E2 (mutant EP1S, base substitution) (dsDNA)
DNA 1: TTCAGAGTGTCACTTCAGAGTGTCACTTCAGAGTGTCACTTCAGAGTGTCAC
DNA 2: GTGACACTCTGAAGTGACACTCTGAAGTGACACTCTGAAGTGACACTCTGAA
- binding result: binds
